Source: the supplement of paper PMC10567573

Assay: protein stability index of a GFP-peptide fusion (GPS, HEK-293T) (PSI 1-6); higher = more stable
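Further: lentivirally expressed fusions sorted by FACS into six bins by GFP to DsRed ratio, PSI derived from sequencing read proportions per bin multiplied by bin number.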

YTEGISQRMRVPEKLKVAPPNADL
protein stability index (parent: IOH62657_3, c terminus: a fixed tail appended): 2.94

CRNCINLQNEAQKRESFLKYKCLL
protein stability index (parent: IOH62149_105, c terminus: a fixed tail appended): 2

YCSIKCQQEHWHAEHKRTCRRKR [ZMYND11 WT]
protein stability index (parent: IOH62570_82, c terminus: native): 2.53

EADKNDKAVKDLVVLLFETALLSS
protein stability index (parent: IOH61079_108, c terminus: a fixed tail appended): 1.84

VTYMNMTAYNKGRLQSSFWIVDKQ
protein stability index (parent: IOH63495_20, c terminus: a fixed tail appended): 2.36

FSEIRETSAKVNWMPPPSRADSFK
protein stability index (parent: IOH81617_33, c terminus: a fixed tail appended): 3.45

LLQRELMVPGTRHSAVLRDLRSGT
protein stability index (parent: IOH81617_23, c terminus: a fixed tail appended): 2.54

STTALGDKQRKANESKGTRESWDS [TCEB3B WT]
protein stability index (parent: IOH63382_68, c terminus: a fixed tail appended): 3.77

NSISSDKEATVPCTEILTEKKDTI
protein stability index (parent: IOH80698_58, c terminus: a fixed tail appended): 5.37

KKPPEESTCFERPCFKWYTSPWSE [ADAMTSL2 WT]
protein stability index (parent: IOH80445_141, c terminus: a fixed tail appended): 2.4

FTPPTSLTRAGMSYYNSPGLHVQH
protein stability index (parent: IOH61736_64, c terminus: a fixed tail appended): 1.82

LPVETLGPASRMDPESERALQAPH
protein stability index (parent: IOH61084_4, c terminus: a fixed tail appended): 4.39

HDPLYGKLFSTYLRPPHTSRGTSQ [LPCAT4 WT]
protein stability index (parent: IOH62663_80, c terminus: a fixed tail appended): 2.6

ELRNVQDVVEDYKKRYEEEINKRT
protein stability index (parent: IOH63384_35, c terminus: a fixed tail appended): 3.49

YQSGGRIRRPVNVPIDIFSEEIRF
protein stability index (parent: IOH61428_28, c terminus: a fixed tail appended): 2

DDLTVVDAASLRRQIIKLNRRLQL
protein stability index (parent: IOH62657_32, c terminus: a fixed tail appended): 2.1

LQQLRARLQGLEADCVRGPDGVCL
protein stability index (parent: IOH61084_56, c terminus: a fixed tail appended): 2.22

FVVEYHGDLIEITDAKKREALYAQ
protein stability index (parent: IOH80936_41, c terminus: a fixed tail appended): 2.1

SKPKTFQAYLDDCHRRYSCAHCRA [YPEL3 WT]
protein stability index (parent: IOH80494_8, c terminus: a fixed tail appended): 1.87

FAQADALKGTLVSTLKEVKPTVFI
protein stability index (parent: IOH62594_50, c terminus: a fixed tail appended): 1.64

YVEVKEGKTWKQICDKHWTAKNSR [LOXL2 WT]
protein stability index (parent: IOH81790_35, c terminus: a fixed tail appended): 2.24

EKQKQPRWREGTKDSHDPLPSWAE
protein stability index (parent: IOH61084_93, c terminus: a fixed tail appended): 2.16

EADYEDDSKIAFLMQLQDIQYLTE
protein stability index (parent: IOH62149_110, c terminus: a fixed tail appended): 3.05

TPMTIPEFFRESVNRFGTYPALAS
protein stability index (parent: IOH62594_9, c terminus: a fixed tail appended): 2.12

VAHVKHLSASQKALKEKEKASWSS
protein stability index (parent: IOH62819_9, c terminus: a fixed tail appended): 3.21

LLQRELAQEDSLNKLALQYGCKVA [LYSMD4 WT]
protein stability index (parent: IOH63099_13, c terminus: a fixed tail appended): 1.92

EILGCPLPDPNNYYHRRNEMTTTD
protein stability index (parent: IOH80553_49, c terminus: a fixed tail appended): 3.32

FTSPDYQQQCHEMAERLEDSVLKG [C1orf55 WT]
protein stability index (parent: IOH61664_26, c terminus: a fixed tail appended): 2.15

GERVVINISGLRFETQLKTLCQFP
protein stability index (parent: IOH61428_18, c terminus: a fixed tail appended): 2.31

TLDGYGIHPKSIDLDNYFTARRLL [NFE2L1 WT]
protein stability index (parent: IOH81649_11, c terminus: a fixed tail appended): 1.93

CSWKGATKQRIQDQKVPYIFRDNQ [CHIT1 WT]
protein stability index (parent: IOH63601_52, c terminus: a fixed tail appended): 2.59

QVANSAFVERVRKRGFEVVYMTEP
protein stability index (parent: IOH61079_83, c terminus: a fixed tail appended): 2.26

TLFKKIQALQKEKETLAVNYEKEE
protein stability index (parent: IOH61736_20, c terminus: a fixed tail appended): 3.05

GRKKYDIDPRNGIPKLTPGDNPYM
protein stability index (parent: IOH63376_32, c terminus: a fixed tail appended): 3.52

KKAQGKTQQNRKLTDFYPVRRSSR
protein stability index (parent: IOH80936_29, c terminus: a fixed tail appended): 2.19

FDKEWVAKQTKRMLDMKVNPIQGL
protein stability index (parent: IOH62819_23, c terminus: a fixed tail appended): 1.75

RNALENIRKEMKLLEQAGSLKGSL [CRYL1 WT]
protein stability index (parent: IOH81349_8, c terminus: a fixed tail appended): 3.44

GKQAPRKKAQGKTQQNRKLTDFYP
protein stability index (parent: IOH80936_28, c terminus: a fixed tail appended): 2.67

FGEDGIFRHDRLRFRDFVDALEDS
protein stability index (parent: IOH61084_108, c terminus: a fixed tail appended): 2.59

SVIEPVQESSFRSRKIAVEDENDL
protein stability index (parent: IOH80698_41, c terminus: a fixed tail appended): 5.18

LTSDLYAPMVAGALARLGTVTVIS [SLC25A39 WT]
protein stability index (parent: IOH63154_27, c terminus: a fixed tail appended): 2.94

YSEYPECCVDVKPISQEKIESERA [DUSP5 WT]
protein stability index (parent: IOH62976_23, c terminus: a fixed tail appended): 4.09

QKELQDVGQSLRIKEQEVCKLQEQ [SASS6 WT]
protein stability index (parent: IOH63533_44, c terminus: a fixed tail appended): 5.02

WIVDKQHVYIGSAGLDWQSLGQMK
protein stability index (parent: IOH63495_23, c terminus: a fixed tail appended): 1.79

KIREKEEWIKLDYHRRHNPKTNED
protein stability index (parent: IOH62149_64, c terminus: a fixed tail appended): 4.36

KRTYWPDLDAKIREALVLRSVRVR
protein stability index (parent: IOH63495_45, c terminus: a fixed tail appended): 2.02

ASVTIQARAEQEEEFISNTLFKKI
protein stability index (parent: IOH61736_17, c terminus: a fixed tail appended): 3.51

FGSRSLYSLGGVRSLNVASGSGKS
protein stability index (parent: IOH63384_8, c terminus: a fixed tail appended): 1.86

TASTKNCMVGYDMGATRCDFTLSK
protein stability index (parent: IOH80553_117, c terminus: a fixed tail appended): 2.15

MAEISRIQYEMEYTEGISQRMRVP
protein stability index (parent: IOH62657_1, c terminus: a fixed tail appended): 2.65

DMVSNIELPTRIHEEVYFEPSSSK
protein stability index (parent: IOH80698_88, c terminus: a fixed tail appended): 3.89

SLGKQKVFIIRKSLLDELMEVQHF [SOAT2 WT]
protein stability index (parent: IOH63195_17, c terminus: a fixed tail appended): 2.25

YPEQSKGFHKAGSMLPPVNFSIVP
protein stability index (parent: IOH63376_36, c terminus: a fixed tail appended): 1.94
